“Also recorded” adds a separate entry of the source. Read-outs that look alike come from different tables or passages of the source.
What was measured:
regular 4T1-luc cells = test: Cytotoxicity, regular 4T1-luc cells; format: cell-based, murine
Experimental: (§1) Cytotoxicity studies. The cytotoxicity was measured as previously described (Zhao, et al; Mol. Pharm, 2014; 11(8):2703-12). The incubation time was 72 hours. 4T1-lu mammosphere cells were generated as the previously described (Zhao, et al; Mol. Pharm, 2014; 11(8):2703-12).

[1] = Tissue distribution of Sali-ABA in 4T1-luc tumored mice; details: mouse, in vivo, 24 h
Experimental: (§2) Pharmacokinetics and biodistribution study. Sali-ABA concentrations in blood and tissues were analyzed, and the concentrations were analyzed as previously described (Zhao, et al; Mol. Pharm, 2014; 11(8):2703-12).
The aforementioned slow clearance and particle size of iTEP-MPBH-ABA-Sali could enable the conjugate to leverage the EPR effect and, therefore, more efficiently accumulate in tumors. […] Tumors and all following organ samples were collected at 24 hours post administration. The quantities of Sali-ABA were expressed as percentage of initial dose normalized by weight of organs, ID %/gram. The data were analyzed by one-way ANOVA. P-value is shown in the figure and * indicates a significant difference. At the same time, there was a reduction of Sali-ABA accumulation in the heart when iTEP-MPBH-ABA-Sali NP was compared with free Sali, although the difference was not statistically significant (0.57±0.18 ID %/gram vs 0.86±0.11 ID %/gram, FIG. 11C). The data were analyzed by one-way ANOVA. The reduction may benefit the toxicity profile of the NP as the heart is an organ sensitive to Sali (Bastianello, et al., J S Afr Vet Assoc, 1996; 67(1):38-41). […] The data were analyzed by one-way ANOVA. P-values are shown in the figure and * indicates a significant difference.

[2] = Hydrodynamic diameter by dynamic light scattering (DLS); format: physicochemical; details: 25 μM in PBS at 37° C.
Experimental: Characterization of the size of iTEPB-pOVA and iTEPB-iTEPA-pOVA fusions. The particle size distribution of the iTEP fusions was determined by dynamic light scattering (DLS) using a Zetasizer Nano-ZS instrument (Malvern Instruments, Malvern, UK) as previously described.^(29) The fusions were prepared at 5 μM and 25 μM in PBS and equilibrated at 37° C. for the measurement. The reported results represented the average particle size by number.
Dynamic light scattering (DLS) measurement. The measurement was carried out as previously described. iTEP, iTEP-MPBH-ABA-Sali conjugate, or PTX NP were measured at 25 μM in PBS at 37° C. using a Malvern Zetasizer Nano system (Malvern, Chester County, PA, USA).
Characterization of hydrodynamic diameters of iTEP-vaccine fusions. Hydrodynamic diameters of iTEP-vaccine fusions were determined by dynamic light scattering (DLS) using a Zetasizer Nano-ZS instrument (Malvern Instruments, Malvern, UK) as previously described (Zhao et al., Mol Pharm, 2014; 11(8):2703-12). The samples were resuspended at concentrations of 5, 25, 50, and 100 μM in PBS and sat at room temperature overnight before measurement. Some samples were kept in 5% C02 at 37° C. for 16 h before DLS measurement. Hydrodynamic diameter results of the sample of 5 μM concentration were reported because they were not affected by the used sample concentrations. Hydrodynamic diameters were presented using the size-by-number distribution approach. Z-average values and sizes-by-intensity data, however, were also reported.

[3] = tested on: mammosphere 4T1-luc cells; test: Cytotoxicity, mammosphere 4T1-luc cells (CSCs); format: cell-based, murine
Experimental: as §1

[4] = In vitro Sali-ABA release assay; format: physicochemical; details: neutral pH (PBS), up to 100-hour monitoring
Experimental: In vitro Sali-ABA release assay. The release of Sali-ABA from iTEP-MPBH-ABA-Sali NP was measured after the NP was incubated in PBS (pH=7.4) or 0.1M sodium acetate/acetic acid buffer (pH=5) at 37° C. Multiple repeats of each mixture were kept in separate Eppendorf tubes and shaken at 100 rpms at 37° C. At predetermined time points, free Sali-ABA in one tube of sample was determined by HPLC based on a standard curve of Sali-ABA. The standard curve was established at 280 nm. The HPLC setup was the same as the described herein.
The relationship of the percentage of Sali-ABA release (F) with time (t) was fitted using the following equation and GraphPad V5.0. F%,released=100[…]

[5] = Pharmacokinetics (plasma Sali-ABA) after intravenous administration; parameters: species or system mice; details: mouse, in vivo
Experimental: as §2
Results. The pharmacokinetics of Sali-ABA and iTEP-MPBH-ABA-Sali were compared after they were administered intravenously to mice at a dose of 20 mg/Kg Sali-ABA equivalent. Plasma concentrations of Sali-ABA after the administration of either formulation were monitored for up to 24 hours (FIG. 11A). The temporal changes of the concentrations were fitted into a two-compartment pharmacokinetics model.

[6] = tested on: 4T1-luc orthotopic tumors; test: Tumor growth, metastasis and survival study; format: in vivo, Balb/c mice
Experimental: Tumor growth study. Balb/c mice were inoculated subcutaneously with 10^6 4T1-luc cells in 50 μL PBS at the #9 mammary glands. At the seventh day after inoculation when the volumes of all tumors reached or exceeded 100 mm^3, the mice were randomly assigned into groups as described in FIGS. 12 and 13. The dosing and dosing schedules are as following: • 1. PBS control (three day interval); Sali-ABA (20 mg/Kg BW, three-day interval), • 2. iTEP-MPBH-ABA-Sali NP (20 mg/Kg BW, three-day interval), • 3. PTX NP (10 mg/Kg BW, three-day interval), • 4. PTX NP and iTEP-MPBH-ABA-Sali combination, iTEP-MPBH-ABA-Sali NP on the first day (20 mg/Kg BW), PTX NP on the second day (10 mg/Kg BW), then two-day interval.
Seven total doses were administered intravenously. The length and width dimensions of tumors were measured with a caliper every other day. Tumor volumes were estimated using the formula: Tumor Volume=(length×width^2/2) (Zhang et al., Biomaterials, 2012; 33(2):679-91). Also, mouse body weight was recorded the same day when the tumor size was measured. The treatments of PTX NP and the combinational therapy were done after the results of the first three treatment groups were obtained.
Moreover, in order to monitor metastasis, bioluminescence signals released from 4T1-luc cells were monitored as previously described (Tao et al., BMC Cancer, 2008; 8(1):228). Specifically, experimental mice were injected intraperitoneally with 100 μl of D-luciferin (15 mg/ml) at predetermined time points (twice each week, 3-4 days interval). At 15 minutes after luciferin injection, the mice were imaged under anesthesia in a Xenogen IVIS 200 biophotonic imager (PerkinElmer, Inc., MA, USA). The bioluminescence intensity was denoted using photon emission from the subject or radiance in the unit of photons/sec/cm^2/sr (steradian). […] The overall survival time was counted as days between tumor inoculation and mouse sacrifice. Metastasis-free survival and overall survival were analyzed by the Kaplan-Meier method, and the median survival of each groups were compared using the Log-rank test with GraphPad V5.0.

Row | Molecule | IC50 (regular 4T1-luc cells; Mus musculus, 4T1-Luc, 72 h) [µM] | Sali-ABA accumulation in the heart [1] [ID %/gram] | hydrodynamic diameter (DLS) [2] [nm] | cytotoxicity, times lower than Sali-ABA-MPBH alone (regular 4T1-luc cells; regular 4T1-luc cells) [times] | IC50 (regular 4T1-luc cells; regular 4T1-luc cells, 72 hours, read-out: IC50) [µM] | times more toxic to mammosphere 4T1-luc cells (CSCs) than to regular 4T1-luc cells [3] | IC50 ([3]; mammosphere 4T1-luc cells, 72 hours) [µM] | release at the neutral pH [4] | elimination half-life, times longer than free Sali-ABA administration [5] [times] | median overall survival ([6]; days after tumor inoculation) [days] | development of metastasis in treated mice ([6]; mouse, in vivo, listed as iTEP-MPBH-ABA-Sali NP) | inhibition of primary tumor growth ([6]; seven intravenous doses)
1 | CC[C@@H](C(=O)[C@@H](C)[C@@H](O)[C@H](C)[C@@H]1O[C@@H]([C@@H](CC)C(=O)O)CC[C@@H]1C)[C@H]1O[C@]2(C=C[C@@H](O)[C@]3(CC[C@@](C)([C@H]4CC[C@](O)(CC)[C@H](C)O4)O3)O2)[C@H](C)C[C@@H]1C [Sali, Salinomycin, reference compound] | 4.4 | 0.86±0.11 | – | – | – | – | – | – | – | – | – | –
2 | iTEP-MPBH-ABA-Sali: conjugate of hydrophilic iTEP (SEQ ID NO: 58) with Sali-ABA-MPBH, self-assembled into a NP (conjugate, conjugated to Sali via ABA-MPBH linker) GGAGVPGGAGVPGGAGVPGGAGVPGGAGVPGGAGVPGGAGVPGGAGVPGGAGVPGGAGVPGGAGVPGGAGVPGGAGVPGGAGVPGGAGVPGGAGVPGGAGVPGGAGVPGGAGVPGGAGVPGGAGVPGGAGVPGGAGVPGGAGVPGGAGVPGGAGVPGGAGVPGGAGVPGGAGVPGGAGVPGGAGVPGGAGVPGGAGVPGGAGVPGGAGVPGGAGVPGGAGVPGGAGVPGGAGVPGGAGVPGGAGVPGGAGVPGGAGVPGGAGVPGGAGVPGGAGVPGGAGVPGGAGVPGGAGVPGGAGVPGGAGVPGGAGVPGGAGVPGGAGVPGGAGVPGGAGVPGGAGVPGGAGVPGGAGVPGGAGVPGGAGVPGGAGVPGGAGVPGGAGVPGGAGVPGGAGVPGGAGVPGGAGVPGGAGVPGGAGVPGGGVLPGVGGVLPGVGGVLPGVGGVLPGVGGVLPGVGGVLPGVGGVLPGVGGVLPGVGGVLPGVGGVLPGVGGVLPGVGGVLPGVGGVLPGVGGVLPGVGGVLPGVGGVLPGVGGVLPGVGGVLPGVGGVLPGVGGVLPGVGGVLPGVGGVLPGVGGVLPGVGGVLPGVGGVLPGVGGVLPGVGGVLPGVGGVLPGVGGVLPGVGGVLPGVGGVLPGVGGVLPGVGGVLPGVGGVLPGVGGVLPGVGGVLPGVGGVLPGVGGVLPGVGGVLPGVGGVLPGVGGVLPGVGGVLPGVGGVLPGVGGVLPGVGGVLPGVGGVLPGVGGVLPGVGGVLPGVGGVLPGVGGVLPGVGGVLPGVGGVLPGVGGVLPGVGGVLPGVGGVLPGVGGVLPGVGG | – | – | 51.2±18.2 | 2.6 | 42.2 | about eight | 5.8 | no detectable release | 35 | 39 | No mice in the NP-treated group developed metastasis; also recorded: zero metastasis | slowed primary tumor growth

Reference: US11957762B2, “Immune tolerant and non-immune tolerant elastin-like recombinant peptides and methods of use” (University of Utah Research Foundation, priority 2015, dated 2024)
